Assay results as given in the supplement of paper PMC10724198.
± gives the standard deviation of the averaged measurements.

How the values were obtained:
Saccharomyces cerevisiae [1] = test: protein stability index of tFT-peptide fusion (C-terminal peptide) (PSI (0-1 scale)); higher = more stable (slower turnover)
Procedure: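 MPS profiling in S. cerevisiae of the tFT-X12 degron library: putative degron peptides plus stable controls, 12 aa, fused to the C-terminus of a sfGFP-mCherry timer. Cells are FACS-sorted into 8 mCherry/sfGFP bins and deep-sequenced. PSI runs from 0 (unstable) to 1 (stable). Backgrounds are wild type, das1Δ and doa10Δ at 30 °C, and wild type, das1Δ, cdc34-1 and cdc53-1 at 37 °C; 2-3 technical replicates each.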

Saccharomyces cerevisiae [2] = test: as above; conditions: genetic background: wild type; temperature: 30 C
[3] = genetic background: cdc34-1, temperature: 37 C
[4] = genetic background: cdc53-1, temperature: 37 C
[5] = genetic background: das1 deletion, temperature: 30 C
[6] = genetic background: das1 deletion, temperature: 37 C
[7] = genetic background: doa10 deletion, temperature: 30 C
[8] = genetic background: wild type, temperature: 30 C
[9] = genetic background: wild type, temperature: 37 C
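Note: PSI is a weighted mean of sequencing reads over stability bins, variants kept only with over 10 reads, mCherry proximal and sfGFP distal, peptide attached via GGGS linker.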

Row | Sequence | protein stability index (Saccharomyces cerevisiae [1]; [3]) | protein stability index (Saccharomyces cerevisiae [1]; [4]) | protein stability index (Saccharomyces cerevisiae [1]; [5]) | protein stability index (Saccharomyces cerevisiae [1]; [6]) | protein stability index (Saccharomyces cerevisiae [1]; [7]) | protein stability index (Saccharomyces cerevisiae [1]; [8]) | protein stability index (Saccharomyces cerevisiae [1]; [9]) | protein stability index (Saccharomyces cerevisiae [2])
1 | CRFYIRITRRYS | 0.491 ± 0.017 | 0.576 ± 0.024 | 0.541 ± 0.041 | 0.584 ± 0.032 | 0.156 ± 0.025 | 0.132 ± 0.033 | 0.255 ± 0.031 | 0.21 ± 0.025
2 | CRLLVFGLCVGA | 0.292 ± 0.012 | 0.332 ± 0.0083 | 0.228 ± 0.046 | 0.419 ± 0.0084 | 0.189 ± 0.0062 | 0.237 ± 0.022 | 0.39 ± 0.0056 | 0.342 ± 0.014
3 | CRWHLRIVRGLM | 0.5609 ± 0.0048 | 0.665 ± 0.00068 | 0.593 ± 0.01 | 0.6603 ± 0.0027 | 0.29 ± 0.019 | 0.276 ± 0.056 | 0.415 ± 0.019 | 0.377 ± 0.0026
4 | CSKGLSILLLLL | 0.636 ± 0.055 | 0.672 ± 0.028 | 0.469 ± 0.021 | 0.634 ± 0.028 | 0.301 ± 0.018 | 0.321 ± 0.034 | 0.53 ± 0.012 | 0.41 ± 0.0064
5 | CSRDVFLFIKFL | 0.391 ± 0.023 | 0.544 ± 0.018 | 0.457 ± 0.0096 | 0.5679 ± 0.002 | 0.0736 ± 0.035 | 0.075 ± 0.019 | 0.127 ± 0.037 | 0.132 ± 0.02
6 | CSSLIMIITCVN | 0.2613 ± 0.00064 | 0.289 ± 0.013 | 0.244 ± 0.031 | 0.4 ± 0.017 | 0.0883 ± 0.023 | 0.115 ± 0.0091 | 0.122 ± 0.027 | 0.199 ± 0.046
7 | CTESVYIIRFML | 0.638 ± 0.045 | 0.661 ± 0.025 | 0.568 ± 0.025 | 0.662 ± 0.02 | 0.222 ± 0.003 | 0.253 ± 0.035 | 0.466 ± 0.029 | 0.341 ± 0.084
8 | CVEACVWYNAGL | 0.745 ± 0.046 | 0.782 ± 0.024 | 0.662 ± 0.024 | 0.774 ± 0.027 | 0.6577 ± 0.004 | 0.687 ± 0.031 | 0.764 ± 0.015 | 0.7382 ± 0.0062
9 | CVILVVISGLLG | 0.166 ± 0.035 | 0.315 ± 0.039 | 0.199 ± 0.039 | 0.3938 ± 0.0035 | 0.178 ± 0.013 | 0.217 ± 0.03 | 0.3491 ± 0.0021 | 0.345 ± 0.078
10 | CVPGPRWWYHSA | 0.671 ± 0.031 | 0.755 ± 0.015 | 0.685 ± 0.031 | 0.775 ± 0.011 | 0.233 ± 0.0045 | 0.272 ± 0.019 | 0.53465 ± 0.00023 | 0.446 ± 0.0059
11 | CWFGLVSLFWVV | 0.49 ± 0.051 | 0.52 ± 0.012 | 0.421 ± 0.04 | 0.576 ± 0.0068 | 0.275 ± 0.0067 | 0.299 ± 0.015 | 0.434 ± 0.016 | 0.429
12 | DAIVLGSVVVCR | 0.515 ± 0.032 | 0.563 ± 0.017 | 0.393 ± 0.029 | 0.5719 ± 0.0051 | 0.342 ± 0.0065 | 0.39 ± 0.038 | 0.55 ± 0.013 | 0.414 ± 0.026
13 | DCRFIIFYCVMV | 0.48 ± 0.022 | 0.5 ± 0.019 | 0.434 ± 0.053 | 0.509 ± 0.019 | 0.454 ± 0.06 | 0.454 ± 0.037 | 0.506 ± 0.019 | 0.457 ± 0.029
14 | DDESLVGRWRKV | 0.647 ± 0.011 | 0.7263 ± 0.00098 | 0.6402 ± 0.0045 | 0.738 ± 0.011 | 0.25 ± 0.0057 | 0.313 ± 0.014 | 0.547 ± 0.019 | 0.365 ± 0.11
15 | DFPGDIILRLIA | 0.576 ± 0.041 | 0.748 ± 0.044 | 0.635 ± 0.014 | 0.728 ± 0.025 | 0.139 ± 0.0097 | 0.155 ± 0.0082 | 0.214 ± 0.069 | 0.207 ± 0.11
16 | DLAWAIGRLTKG | 0.72 ± 0.02 | 0.769 ± 0.033 | 0.654 ± 0.029 | 0.761 ± 0.016 | 0.653 ± 0.011 | 0.652 ± 0.0094 | 0.743 ± 0.013 | 0.568 ± 0.2
17 | DLPKAYCIEMIG | 0.6033 ± 0.0055 | 0.718 ± 0.015 | 0.613 ± 0.034 | 0.7187 ± 0.005 | 0.198 ± 0.029 | 0.215 ± 0.023 | 0.432 ± 0.02 | 0.328 ± 0.027
18 | DNLYSLEFMAIR | 0.719 ± 0.04 | 0.78 ± 0.016 | 0.647 ± 0.021 | 0.7875 ± 0.0042 | 0.655 ± 0.025 | 0.645 ± 0.012 | 0.7796 ± 0.004 | 0.566 ± 0.19
19 | DPPRPIMRIHMI | 0.553 ± 0.065 | 0.651 ± 0.042 | 0.671 ± 0.059 | 0.719 ± 0.016 | 0.115 ± 0.021 | 0.111 ± 0.015 | 0.171 ± 0.027 | 0.181 ± 0.0027
20 | DSPRGRCVRLLV | 0.66041 ± 1.4e-06 | 0.74745 ± 0.00025 | 0.646 ± 0.013 | 0.741 ± 0.017 | 0.253 ± 0.0077 | 0.308 ± 0.0036 | 0.599 ± 0.067 | 0.398 ± 0.03

Row | Sequence | protein stability index (Saccharomyces cerevisiae [1]; [3]) | protein stability index (Saccharomyces cerevisiae [1]; [4]) | protein stability index (Saccharomyces cerevisiae [1]; [5]) | protein stability index (Saccharomyces cerevisiae [1]; [6]) | protein stability index (Saccharomyces cerevisiae [1]; [7]) | protein stability index (Saccharomyces cerevisiae [1]; [8]) | protein stability index (Saccharomyces cerevisiae [1]; [9]) | protein stability index (Saccharomyces cerevisiae [2])
21 | DWCACFFILLLA | 0.0391 ± 0.0052 | 0.0382 ± 0.012 | 0.117 ± 0.026 | 0.17 ± 0.016 | 0.145 ± 0.0095 | 0.0983 ± 0.018 | 0.111 ± 0.028 | 0.152 ± 0.019
22 | DWTVSYLWVTAL | 0.534 ± 0.042 | 0.592 ± 0.019 | 0.469 ± 0.025 | 0.599 ± 0.006 | 0.185 ± 0.0044 | 0.208 ± 0.0091 | 0.385 ± 0.02 | 0.331 ± 0.015
23 | ECCKRFCCRFVA | 0.627 ± 0.038 | 0.6982 ± 0.0042 | 0.644 ± 0.0065 | 0.73 ± 0.018 | 0.231 ± 0.0082 | 0.256 ± 0.021 | 0.4002 ± 0.0022 | 0.338 ± 0.044
24 | EERKIFLKVVKV | 0.545 ± 0.036 | 0.496 ± 0.016 | 0.398 ± 0.025 | 0.5748 ± 0.0007 | 0.218 ± 0.021 | 0.305 ± 0.027 | 0.4656 ± 0.0028 | 0.463 ± 0.0094
25 | EGGLGDRLLGVG | 0.526 ± 0.035 | 0.577 ± 0.0092 | 0.501 ± 0.0078 | 0.573 ± 0.021 | 0.5161 ± 0.0024 | 0.518 ± 0.016 | 0.547 ± 0.0066 | 0.47 ± 0.015
26 | EMISRNVFTYLS | 0.684 ± 0.037 | 0.755 ± 0.012 | 0.619 ± 0.034 | 0.773 ± 0.023 | 0.394 ± 0.034 | 0.42 ± 0.023 | 0.6266 ± 0.0049 | 0.473 ± 0.03
27 | EMPRLSKAIRVT | 0.5407 ± 0.00036 | 0.5702 ± 0.0053 | 0.371 ± 0.026 | 0.603 ± 0.011 | 0.279 ± 0.0047 | 0.314 ± 0.028 | 0.4961 ± 0.0028 | 0.44 ± 0.029
28 | EVGTMALISCSV | 0.3854 ± 0.001 | 0.356 ± 0.084 | 0.319 ± 0.05 | 0.458 ± 0.022 | 0.252 ± 0.019 | 0.288 ± 0.034 | 0.427 ± 0.039 | 0.428 ± 0.034
29 | EWSRVVRWNWDG | 0.528 ± 0.046 | 0.69857 ± 0.00044 | 0.637 ± 0.011 | 0.707 ± 0.0084 | 0.121 ± 0.0082 | 0.148 ± 0.014 | 0.266 ± 0.015 | 0.254 ± 0.027
30 | FALVSLSFALVE | 0.4203 ± 0.00048 | 0.457 ± 0.019 | 0.306 ± 0.025 | 0.518 ± 0.0066 | 0.28 ± 0.0036 | 0.292 ± 0.036 | 0.472 ± 0.02 | 0.379 ± 0.034
31 | FGWLELVWFDLG | 0.646 ± 0.0098 | 0.684 ± 0.031 | 0.525 ± 0.03 | 0.703 ± 0.033 | 0.51 ± 0.034 | 0.531 ± 0.024 | 0.68 ± 0.039 | 
32 | GIFYVRTIWSCG | 0.232 ± 0.025 | 0.348 ± 0.0043 | 0.192 ± 0.014 | 0.3813 ± 0.0011 | 0.1446 ± 0.00063 | 0.17 ± 0.017 | 0.332 ± 0.011 | 
33 | GRWGGYVGREWG | 0.497 ± 0.045 | 0.522 ± 0.025 | 0.442 ± 0.0056 | 0.482 ± 0.017 | 0.4402 ± 0.00068 | 0.458 ± 0.0072 | 0.461 ± 0.017 | 
34 | GSMGGVGVLGGD | 0.544 ± 0.071 | 0.6535 ± 0.0059 | 0.467 ± 0.0086 | 0.5571 ± 0.0043 | 0.486 ± 0.018 | 0.476 ± 0.013 | 0.552 ± 0.018 | 
35 | IGWGGGTWVKMG | 0.544 ± 0.0058 | 0.7335 ± 0.0016 | 0.654 ± 0.0079 | 0.769 ± 0.015 | 0.0923 ± 0.022 | 0.106 ± 0.023 | 0.166 ± 0.038 | 
36 | LEDVLFVMVINI | 0.4551 ± 0.0027 | 0.542 ± 0.028 | 0.308 ± 0.038 | 0.549 ± 0.035 | 0.346 ± 0.012 | 0.292 ± 0.025 | 0.49 ± 0.03 | 
37 | LLSLLLDPLLCL | 0.582 ± 0.024 | 0.624 ± 0.0029 | 0.522 ± 0.026 | 0.634 ± 0.015 | 0.521 ± 0.022 | 0.534 ± 0.024 | 0.6166 ± 0.0013 | 
38 | SDGGVVRGGCRG | 0.592 ± 0.083 | 0.787 ± 0.012 | 0.519 ± 0.061 | 0.714 ± 0.1 | 0.549 ± 0.081 | 0.512 ± 0.046 | 0.598 ± 0.016 | 
39 | SVYLYFQVVAYG | 0.0652 ± 0.021 | 0.0815 ± 0.058 | 0.0877 ± 0.049 | 0.198 ± 0.02 | 0.0536 ± 0.021 | 0.0724 ± 0.025 | 0.156 ± 0.0094 | 
40 | VWVVRGFLGFGG | 0.532 ± 0.068 | 0.526 ± 0.029 | 0.4302 ± 0.0014 | 0.457 ± 0.012 | 0.437 ± 0.0075 | 0.438 ± 0.014 | 0.4411 ± 0.00055 | 
